Tested on: S. aureus
Assay: Proteinase K neutralization of lysostaphin activity in vitro
Assay type: cell-based
Conditions: 10^5 S. aureus in PBS; lysostaphin 10 mcg and/or 10 mg/ml Proteinase K; 20 minutes at room temperature
Protocol: Lysostaphin (10 mcg) was added to some samples of 10^5 S. aureus in PBS in the presence or absence of 10 mg/ml Proteinase K. The samples were incubated for 20 minutes at room temperatures and then 100 microliter aliquots were plated on blood agar.

B1: Proteinase K: protease used at 10 mg/ml to neutralize lysostaphin (protein, UniProt P06873 106-384, looked up)
Proteinase K: AAQTNAPWGLARISSTSPGTSTYYYDESAGQGSCVYVIDTGIEASHPEFEGRAQMVKTYYYSSRDGNGHGTHCAGTVGSRTYGVAKKTQLFGVKVLDDNGSGQYSTIIAGMDFVASDKNNRNCPKGVVASLSLGGGYSSSVNSAAARLQSSGVMVAVAAGNNNADARNYSPASEPSVCTVGASDRYDRRSSFSNYGSVLDIFGPGTSILSTWIGGSTRSISGTSMATPHVAGLAAYLMTLGKTTAASACRYIADTANKGDLSNIPFGTVNLLAYNNYQA
  CFUs Recovered: 10^5 CFUs
